The source of these data is US20230235048A1 (PROTHENA BIOSCIENCES, published 2023).

Assay [1] has as its target T1, extracellular domain (ECD) of recombinant human Sortilin with a C-terminal HIS tag (ECD-huSortilin-HIS) (human, UniProt Q99523 78-755).
T1 construct: Bought (R&D Systems); also called human sortilin-ECD; not shown: C-terminal HIS tag
T1 sequence: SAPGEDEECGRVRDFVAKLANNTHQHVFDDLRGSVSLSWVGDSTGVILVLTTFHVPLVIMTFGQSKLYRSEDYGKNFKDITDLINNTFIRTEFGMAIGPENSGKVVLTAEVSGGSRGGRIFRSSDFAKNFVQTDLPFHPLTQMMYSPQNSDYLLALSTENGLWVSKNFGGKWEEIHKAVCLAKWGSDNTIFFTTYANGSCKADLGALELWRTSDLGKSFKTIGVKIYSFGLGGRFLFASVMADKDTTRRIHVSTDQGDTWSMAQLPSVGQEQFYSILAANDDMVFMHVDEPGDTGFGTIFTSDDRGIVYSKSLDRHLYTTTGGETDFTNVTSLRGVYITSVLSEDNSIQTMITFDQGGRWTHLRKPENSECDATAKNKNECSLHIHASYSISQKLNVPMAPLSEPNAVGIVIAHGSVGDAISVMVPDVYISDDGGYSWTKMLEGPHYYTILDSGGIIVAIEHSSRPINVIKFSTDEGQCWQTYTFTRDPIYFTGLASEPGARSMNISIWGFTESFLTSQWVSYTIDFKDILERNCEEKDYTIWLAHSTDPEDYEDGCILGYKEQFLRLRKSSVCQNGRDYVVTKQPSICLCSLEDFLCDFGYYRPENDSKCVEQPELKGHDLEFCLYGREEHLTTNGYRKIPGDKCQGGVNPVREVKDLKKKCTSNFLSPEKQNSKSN
Nature of the assay: SPR (Biacore T200), mAb captured by anti-human antibody on CM5, Sortilin 0.1-300 nM as analyte, global 1:1 fit. On the procedure:
Analysis was performed using a Biacore T200 to compare the binding affinity of chimeric and humanized antibodies to recombinant human Sortilin. Anti-Human antibody was immobilized on sensor chip CM5 (GE Healthcare Life Sciences) via amine coupling, and humanized antibodies (ligand) were captured to a level to ensure a maximum binding of analyte of 50 RU (approximately 100 RU of ligand binding). Various concentrations of Sortilin (ranging from 0.1 nM to 300 nM) were passed over the captured ligand at 50 μL/min in running buffer (HBS+0.05% P-20, 1 mg/mL BSA) for 300s association time and 1200s dissociation time. Regeneration of the chip surface was accomplished by 2 short injections of 3M MgCl. Data was blank subtracted to both a sensor not containing ligand and 0 nM analyte concentration. Analysis was performed using a global 1:1 fit with Biacore Insight Evaluation software (v2.0) with bulk refractive index set to zero RU.
On the technique in general: Surface plasmon resonance follows binding to a sensor surface in real time, without labels.

The target in assay [2] is T1, extracellular domain (ECD) of …. Nature of the assay: ELISA, ECD-huSortilin-HIS coated at 1 ug/mL, goat anti-human IgG-HRP, chemiluminescence. On the procedure: 384-well ELISA plates were coated with 1 ug/mL recombinant ECD-huSortilin-HIS (20 uL/well) and incubated overnight at 4° C. all plates were blocked with 3% BSA in PBS for 1 hour at room temperature. Plates were then washed with Tris buffered saline containing 0.1% Tween20 (TBST) three times. 20 uL of humanized anti-Sortilin mAbs diluted 3-fold from 20 ug/mL to 0.3 ng/mL in 1% BSA in TBST were added to the wells, incubated for 1 hour at room temperature and then washed as above. Goat anti-human IgG specific-HRP (Jackson Immunoresearch) diluted 1:7000 in 1% BSA in TBST was then added at 20 uL per well to react with the bound antibodies and plates were incubated for 1 hour before being washed as above. Super signal Pico chemiluminescent ELISA substrate (ThermoFisher) was used for detection. 20 uL of substrate was added to each well and Relative Light Units (RLU) were measured immediately using the SpectraMax Paradigm (Molecular Devices). Data was analyzed and EC₅₀ was calculated using graphed Prism.

The target is the same in assay [3]. Nature of the assay: ELISA, Ab binding to hSortilin-ECD. On the procedure: Purified anti-huSortilin mAb binding to huSortilin was characterized by ELISA (ELISA protocol as in Example 1) using a 12 point titration of mAb concentration. mAbs were diluted 2-fold from a starting concentration of 67 nM and then added to ECD-huSortilin-HIS coated plates. Data was analyzed and EC₅₀ (nM) was calculated using graphed Prism. Commercially available goat anti-huSortilin (R&D Biosystems) was used as a positive control. Results are depicted in FIG. 8.
(An ELISA detects its analyte on a solid surface through an enzyme-linked reagent.)

In assay [4] the target is T2, human sortilin on the cell surface (recombinant huSortilin on HEK 293 cells; endogenous on U251MG cells) (human, UniProt Q99523 78-831).
T2 construct: whole, on cells; also called huSortilin expressing HEK293 cells; cell surface huSortilin
T2 sequence (looked up): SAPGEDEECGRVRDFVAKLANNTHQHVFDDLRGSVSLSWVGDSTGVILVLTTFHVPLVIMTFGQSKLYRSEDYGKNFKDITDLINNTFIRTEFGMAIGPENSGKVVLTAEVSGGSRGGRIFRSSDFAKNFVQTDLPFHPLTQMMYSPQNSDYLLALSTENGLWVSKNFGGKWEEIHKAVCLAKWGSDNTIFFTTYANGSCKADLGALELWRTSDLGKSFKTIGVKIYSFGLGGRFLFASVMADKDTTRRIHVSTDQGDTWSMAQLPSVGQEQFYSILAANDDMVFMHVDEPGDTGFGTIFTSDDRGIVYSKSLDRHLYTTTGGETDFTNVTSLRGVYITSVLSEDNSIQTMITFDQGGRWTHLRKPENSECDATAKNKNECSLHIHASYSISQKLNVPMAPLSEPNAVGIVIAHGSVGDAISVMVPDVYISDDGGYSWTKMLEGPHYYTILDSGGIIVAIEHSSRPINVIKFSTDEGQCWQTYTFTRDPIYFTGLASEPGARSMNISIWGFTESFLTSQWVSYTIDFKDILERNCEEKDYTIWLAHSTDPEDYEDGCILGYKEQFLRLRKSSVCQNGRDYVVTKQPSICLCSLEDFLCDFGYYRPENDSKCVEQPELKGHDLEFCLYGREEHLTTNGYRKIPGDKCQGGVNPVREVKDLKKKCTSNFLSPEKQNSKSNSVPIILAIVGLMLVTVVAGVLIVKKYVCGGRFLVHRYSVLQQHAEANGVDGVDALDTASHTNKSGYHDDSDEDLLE
Nature of the assay: cell-based blocking titration (flow cytometry), huSortilin HEK293 cells; blocked ligand 30 nM huPGRN-Biotin. On the procedure:
Cells were cultured using standard methods. […] Cells were then washed twice in PBS+2% FBS and incubated for 30 minutes on ice with 50 uL per well 1:200 Steptavidin-APC (BD biosciences) in PBS+2% FBS. Cells were then washed as above and resuspended in 100 uL PBS+2% FBS. Data was acquired using the BD LSR II and analyzed using FlowJo software version 10.6 and Microsoft excel.
The cell-based blocking assay was repeated with the top 12 blocking mAbs using a dose titration from 67 nM to 0.4 nM. Blocking assay was carried out as above. Data was analyzed using FlowJo software version 10.6. and GraphPad Prism software.

Assay [5] has as its target T1, extracellular domain (ECD) of …. Kind of assay: blocking ELISA, coated ECD-huSortilin-HIS; blocked ligand huPGRN-Biotin.

B1: chimeric 5E20 (antibody, human IgG1, kappa, L234A L235A, V domains shown)
VH: EVQLVESGGDLVKPGGSLKLSCAAPGFTFSTYGMSWVRQTPDKRLEWVAIISSGGSYTYYSDTVKGRFTISRDNAKNTLYLQMSSLKSEDTAMYYCSRSSSHWYFDVWGTGTTVTVSS
VL: DILMTQSPSSMSVSLGDTVSITCHASQGISSNIGWLQQKPGKSFKGLIYHGTNLKDGVPSRFSGSGSGADFSLTISSLESEDFADYFCVQYAQFPYTFGGGTKLEIKR
notes: The entries are described as 'a chimeric 5E20 heavy chain' and 'light chain'
Regarding B1, the equilibrium dissociation constant (Kd) (usually the free concentration of one partner at which half of the binding sites on the other are occupied at equilibrium, for simple one-to-one binding) in assay [1] turned out to be 0.66 nM. The EC50 (as a rule, the midpoint of the concentration-response curve) in assay [2] worked out at 0.07 µg/mL.

B2: humanized 8H24 hu8H24VHv1/hu8H24VLv1 (antibody, V domains shown)
VH: QAQLVQSGAEVKKPGSSVKVSCKASGYTFTSYSMHWVRQAPGQGLEWIGAIYPGNDATSYNQKFKGRATLTVDKSTSTAYMELSSLRSEDTAVYFCAREGYYGSSFEAWFASWGQGTTVTVSS
VL: DVVMTQTPLSLPVTPGEPASISCRSSQSIVHSNGNTYLEWYLQKPGQSPQLLIYKVSNRFSGVPDRFSGSGSGTDFTLKISRVEAEDVGVYYCFQGSHVLPTFGGGTKVEIK
notes: Human IgG; also called 8H24H1L1
Take B2: in assay [1], the Kd came out at 2.22 nM; the koff (in general, the rate constant with which the complex falls apart) came to 0.00141 s⁻¹; the association rate constant (kon) (as a rule, a measure of how fast the partners come together) worked out at 637000 M⁻¹ s⁻¹. In assay [2], the EC50 was found to be 0.14 µg/mL.

B3: humanized 8H24 hu8H24VHv2/hu8H24VLv1 (antibody, V domains shown)
VH: QAQLVQSGAEVVKPGSSVKVSCKASGYTFTSYSMHWVRQAPGQGLEWIGAIYPGNDATSYNQKFKGRATLTVDKSTSTAYMELSSLRSEDTAVYFCAREGYYGSSFEAWFASWGQGTTVTVSS
VL: DVVMTQTPLSLPVTPGEPASISCRSSQSIVHSNGNTYLEWYLQKPGQSPQLLIYKVSNRFSGVPDRFSGSGSGTDFTLKISRVEAEDVGVYYCFQGSHVLPTFGGGTKVEIK
notes: Human IgG; also called 8H24H2L1
For B3, in assay [1], the dissociation constant Kd came to 2.29 nM, the koff amounted to 0.00157 s⁻¹ and the kon worked out at 684000 M⁻¹ s⁻¹. In assay [2], the 50% effective concentration (EC50) was found to be 0.06 µg/mL.

B4: humanized 8H24 hu8H24VHv1/hu8H24VLv2 (antibody, V domains shown)
VH: QAQLVQSGAEVKKPGSSVKVSCKASGYTFTSYSMHWVRQAPGQGLEWIGAIYPGNDATSYNQKFKGRATLTVDKSTSTAYMELSSLRSEDTAVYFCAREGYYGSSFEAWFASWGQGTTVTVSS
VL: DVVMTQTPSSLPVTPGEPASISCRSSQSIVHSNGNTYLEWYLQKPGQSPQLLIYKVSNRFSGVPDRFSGSGSGTDFTLTISRVEAEDVGVYYCFQGSHVLPTFGGGTKVEIK
notes: Human IgG; also called 8H24H1L2; hu8H24H1L2
As to B4, in assay [1], the Kd turned out to be 2.98 nM, the koff turned out to be 0.00134 s⁻¹ and the kon was 450000 M⁻¹ s⁻¹. For the same molecule, the 50% effective concentration (EC50) in assay [2] is 0.1 µg/mL.

B5: humanized 8H24 hu8H24VHv2/hu8H24VLv2 (antibody, V domains shown)
VH: QAQLVQSGAEVVKPGSSVKVSCKASGYTFTSYSMHWVRQAPGQGLEWIGAIYPGNDATSYNQKFKGRATLTVDKSTSTAYMELSSLRSEDTAVYFCAREGYYGSSFEAWFASWGQGTTVTVSS
VL: DVVMTQTPSSLPVTPGEPASISCRSSQSIVHSNGNTYLEWYLQKPGQSPQLLIYKVSNRFSGVPDRFSGSGSGTDFTLTISRVEAEDVGVYYCFQGSHVLPTFGGGTKVEIK
notes: Human IgG; also called 8H24H2L2
In the case of B5, in assay [1], the Kd came to 3.22 nM, the koff was 0.0015 s⁻¹ and the kon turned out to be 466000 M⁻¹ s⁻¹. For the same molecule, in assay [2], the EC50 worked out at 0.07 µg/mL.

B6: humanized 5E20 hu5E20VHv7/hu5E20VLv3 (antibody, V domains shown)
VH: EVQLVESGGGLVQPGGSLRLSCAASGFTFSTYGMSWVRQTPDKRLEWVAIISSGGSYTYYSDTVKGRFTISRDNSKNSLYLQMNSLRAEDTAVYYCSRSSSHWYFDVWGQGTLVTVSS
VL: DIQMTQSPSSVSASVGDRVTITCHASQGISSNIGWLQQKPGKAFKGLIYHGTNLKDGVPSRFSGSGSGADFTLTISSLQPEDFATYFCVQYAQFPYTFGQGTKVEKR
notes: Human IgG; also called 5E20H7L3
With B6, in assay [1], the equilibrium dissociation constant (Kd) was 4.18 nM, the koff worked out at 0.00108 s⁻¹ and the kon is 259000 M⁻¹ s⁻¹. The EC50 in assay [2] was 0.06 µg/mL.

B7: humanized 5E20 hu5E20VHv7/hu5E20VLv4 (antibody, V domains shown)
VH: EVQLVESGGGLVQPGGSLRLSCAASGFTFSTYGMSWVRQTPDKRLEWVAIISSGGSYTYYSDTVKGRFTISRDNSKNSLYLQMNSLRAEDTAVYYCSRSSSHWYFDVWGQGTLVTVSS
VL: DIQMTQSPSSVSASVGDRVTITCHASQGISSNIGWLQQKPGKAFKGLIYHGTNLKDGVPSRFSGSGSGADFTLTISSLQPEDFADYFCVQYAQFPYTFGQGTKVEKR
notes: Human IgG; also called 5E20H7L4; hu5E20H7L4
As for B7, in assay [1], the Kd was 5.02 nM, the off-rate (koff) worked out at 0.0011 s⁻¹ and the kon came out at 218000 M⁻¹ s⁻¹. Also, the concentration giving a half-maximal response (EC50) in assay [2] was 0.04 µg/mL.

B8: mouse monoclonal antibody 9N18 (antibody, mouse IgG2b, V domains shown)
VH: EIQLQQSGPELVKPGASVKISCKASGYSFTGYYMNWVKQSPEKSLEWIGEINPITGGTTYNQNFKAKATLTVDKSSSTAYLQLRSLTSEDSAVYYCASDYFGSNSWFAYWGQGTLVTVSA
VL: DVLMTQTPLSLPVSLGDQASISCRSSQSIVHRNGNTYLEWYLQKPGQSPKLLIYKVSNRFSGVPDRFSGSGSGTDFTLRISRVEAEDLGVYYCFQGSHVPYTFGGGTKLEIK
notes: mouse IgG2b, kappa
Regarding B8, in assay [3], the EC50 was determined as 0.8 nM. In assay [4], the “% Max blocking at 11nM mAb” value is 45%. In addition, the “% Blocking at 7.4nM mAb” value in assay [5] was determined as 65%.
